The values that follow come from publication PMC6061791 (Nucleic Acids Research, 2018).

Data set [1] has as its target T1, DapF (diaminopimelate epimerase), wild type, N-terminal 6×His tag (Escherichia coli, UniProt P0A6K1 1-274).
T1 sequence (looked up): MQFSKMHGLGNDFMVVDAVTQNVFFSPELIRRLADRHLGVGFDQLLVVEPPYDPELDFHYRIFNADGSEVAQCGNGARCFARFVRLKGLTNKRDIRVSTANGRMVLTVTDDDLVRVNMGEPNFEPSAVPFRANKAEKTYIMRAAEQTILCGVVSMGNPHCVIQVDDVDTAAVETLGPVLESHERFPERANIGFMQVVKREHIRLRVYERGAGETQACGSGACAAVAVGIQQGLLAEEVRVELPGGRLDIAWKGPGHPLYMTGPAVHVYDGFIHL
As to the kind of experiment: AUC.

For data set [2], the target named is T2, DapF (Y268A), N-terminal 6×His tag (Escherichia coli, UniProt P0A6K1 1-274, Y268A).
T2 sequence (looked up): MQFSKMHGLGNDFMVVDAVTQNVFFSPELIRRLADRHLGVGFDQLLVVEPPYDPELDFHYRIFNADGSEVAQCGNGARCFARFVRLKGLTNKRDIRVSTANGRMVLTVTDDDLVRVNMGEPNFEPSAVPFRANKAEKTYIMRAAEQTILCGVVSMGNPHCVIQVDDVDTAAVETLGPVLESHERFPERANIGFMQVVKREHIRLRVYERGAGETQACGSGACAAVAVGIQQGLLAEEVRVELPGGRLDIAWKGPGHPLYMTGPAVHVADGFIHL
Nature of the data set: AUC.

The target of data set [3] is T1, DapF (diaminopimelate epimerase), wild …. Nature of the data set: ITC.
The target of data set [4] is T3, DapF (T20A), N-terminal 6×His tag (Escherichia coli, UniProt P0A6K1 1-274, T20A).
T3 sequence (looked up): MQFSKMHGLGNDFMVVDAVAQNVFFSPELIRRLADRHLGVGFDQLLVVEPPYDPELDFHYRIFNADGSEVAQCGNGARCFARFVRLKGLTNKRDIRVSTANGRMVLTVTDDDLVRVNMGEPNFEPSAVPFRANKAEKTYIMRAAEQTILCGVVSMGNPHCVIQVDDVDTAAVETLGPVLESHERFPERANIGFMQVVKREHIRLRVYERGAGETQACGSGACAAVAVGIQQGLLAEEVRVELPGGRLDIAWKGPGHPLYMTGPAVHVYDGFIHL
As to the kind of experiment: ITC. In general terms: ITC needs no label: the signal is the heat of the interaction.

The target in data set [5] is T4, DapF (N22A), N-terminal 6×His tag (Escherichia coli, UniProt P0A6K1 1-274, N22A).
T4 sequence (looked up): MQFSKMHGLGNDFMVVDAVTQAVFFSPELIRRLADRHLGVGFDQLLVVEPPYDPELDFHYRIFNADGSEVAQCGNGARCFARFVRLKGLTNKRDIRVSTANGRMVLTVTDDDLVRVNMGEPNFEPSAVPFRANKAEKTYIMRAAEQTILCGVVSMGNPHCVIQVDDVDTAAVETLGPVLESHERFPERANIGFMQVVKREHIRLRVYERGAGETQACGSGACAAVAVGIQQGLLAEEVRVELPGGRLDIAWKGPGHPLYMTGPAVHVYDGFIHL
Nature of the data set: ITC.

In data set [6] the target is T5, DapF (L89A), N-terminal 6×His tag (Escherichia coli, UniProt P0A6K1 1-274, L89A).
T5 sequence (looked up): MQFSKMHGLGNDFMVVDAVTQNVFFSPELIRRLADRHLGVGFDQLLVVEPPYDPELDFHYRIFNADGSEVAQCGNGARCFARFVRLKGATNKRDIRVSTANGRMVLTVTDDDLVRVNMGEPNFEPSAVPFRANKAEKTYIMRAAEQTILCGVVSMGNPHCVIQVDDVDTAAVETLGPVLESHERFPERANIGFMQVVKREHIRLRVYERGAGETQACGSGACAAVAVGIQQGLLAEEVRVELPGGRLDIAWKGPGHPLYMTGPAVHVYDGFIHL
As to the kind of experiment: ITC.

For another data set, the target named is T6, RppH;DapF (Escherichia coli DH5alpha;Escherichia …, UniProt P0A776;P0A6K1 1-176;1-274, |).
T6 sequence 1: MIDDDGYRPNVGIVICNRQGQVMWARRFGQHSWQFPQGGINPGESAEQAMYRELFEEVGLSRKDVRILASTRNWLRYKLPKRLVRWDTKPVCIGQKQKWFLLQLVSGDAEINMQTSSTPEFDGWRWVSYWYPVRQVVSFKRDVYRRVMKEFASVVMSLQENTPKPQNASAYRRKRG
T6 sequence 2: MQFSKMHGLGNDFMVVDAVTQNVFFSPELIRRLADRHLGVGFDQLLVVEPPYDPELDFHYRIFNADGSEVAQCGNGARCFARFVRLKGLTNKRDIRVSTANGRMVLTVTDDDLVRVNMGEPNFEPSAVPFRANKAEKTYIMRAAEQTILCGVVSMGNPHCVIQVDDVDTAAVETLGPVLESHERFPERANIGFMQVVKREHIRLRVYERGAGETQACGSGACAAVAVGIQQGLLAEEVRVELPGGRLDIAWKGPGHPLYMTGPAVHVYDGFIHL
As to the kind of experiment: ITC.

The target in a further data set is T7, DapF (Escherichia coli DH5alpha, UniProt P0A6K1 1-274).
T7 sequence: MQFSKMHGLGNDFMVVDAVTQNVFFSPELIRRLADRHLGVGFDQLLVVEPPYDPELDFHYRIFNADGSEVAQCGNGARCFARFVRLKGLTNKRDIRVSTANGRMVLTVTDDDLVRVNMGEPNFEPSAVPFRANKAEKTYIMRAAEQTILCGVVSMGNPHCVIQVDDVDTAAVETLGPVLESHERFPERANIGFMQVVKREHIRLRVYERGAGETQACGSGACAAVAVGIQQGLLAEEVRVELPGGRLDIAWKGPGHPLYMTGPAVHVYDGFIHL
As to the kind of experiment: ITC.

The next data set has as its target T8, RppH (Escherichia coli DH5alpha, UniProt P0A776 1-176).
T8 sequence: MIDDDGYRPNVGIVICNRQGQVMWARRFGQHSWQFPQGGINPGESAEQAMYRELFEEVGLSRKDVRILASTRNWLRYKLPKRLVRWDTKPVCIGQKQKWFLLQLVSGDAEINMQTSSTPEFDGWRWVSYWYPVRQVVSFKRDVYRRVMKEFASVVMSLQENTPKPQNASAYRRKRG
As to the kind of experiment: ITC.

B1: RppH (RNA pyrophosphohydrolase), wild type, GST tag removed (enzyme, Escherichia coli, UniProt P0A776 1-176, looked up)
chain: MIDDDGYRPNVGIVICNRQGQVMWARRFGQHSWQFPQGGINPGESAEQAMYRELFEEVGLSRKDVRILASTRNWLRYKLPKRLVRWDTKPVCIGQKQKWFLLQLVSGDAEINMQTSSTPEFDGWRWVSYWYPVRQVVSFKRDVYRRVMKEFASVVMSLQENTPKPQNASAYRRKRG
In the case of B1, the stoichiometry N (in general, the number of molecules, sites or subunits per partner or assembly) in data set [1] is 1 RppH per DapF (2:2 heterotetramer); in data set [2] it was 1 RppH per DapF (1:1 heterodimer); in [3], 0.95; in [4], 0.97; in data set [5], 0.96; in [6] it was 1.06. Besides, the Kd (usually the equilibrium constant for the complex coming apart) in data set [3] worked out at 0.8 ± 0.4 nM; in data set [4], 4.2 ± 1.8 nM; in data set [5] it was 0.3 ± 0.1 nM; in data set [6], 5.2 ± 0.9 nM. For the same molecule, the dH in data set [3] is -13 ± 0.1 kcal⋅mol^-1; in [4], -14.4 ± 0.2 kcal⋅mol^-1; in [5], -16.4 ± 0.1 kcal⋅mol^-1; in data set [6] it was -10.4 ± 0.1 kcal⋅mol^-1.

B2: RppH (R145A), GST tag removed (enzyme, Escherichia coli, UniProt P0A776 1-176, looked up)
chain: MIDDDGYRPNVGIVICNRQGQVMWARRFGQHSWQFPQGGINPGESAEQAMYRELFEEVGLSRKDVRILASTRNWLRYKLPKRLVRWDTKPVCIGQKQKWFLLQLVSGDAEINMQTSSTPEFDGWRWVSYWYPVRQVVSFKRDVYARVMKEFASVVMSLQENTPKPQNASAYRRKRG
Consider B2, for which, in data set [3], the Kd was found to be 2.3 ± 1 nM, the dH was -14.6 ± 0.1 kcal⋅mol^-1 and the “stoichiometry N” value came out at 1.01.

B3: RppH (D142A), GST tag removed (enzyme, Escherichia coli, UniProt P0A776 1-176, looked up)
chain: MIDDDGYRPNVGIVICNRQGQVMWARRFGQHSWQFPQGGINPGESAEQAMYRELFEEVGLSRKDVRILASTRNWLRYKLPKRLVRWDTKPVCIGQKQKWFLLQLVSGDAEINMQTSSTPEFDGWRWVSYWYPVRQVVSFKRAVYRRVMKEFASVVMSLQENTPKPQNASAYRRKRG
Take B3: in data set [3], the equilibrium dissociation constant (Kd) was 4.8 ± 1.8 nM, the dH is -11 ± 0.2 kcal⋅mol^-1 and the “stoichiometry N” value came out at 1.05.

B4: RppH (S128A), GST tag removed (enzyme, Escherichia coli, UniProt P0A776 1-176, looked up)
chain: MIDDDGYRPNVGIVICNRQGQVMWARRFGQHSWQFPQGGINPGESAEQAMYRELFEEVGLSRKDVRILASTRNWLRYKLPKRLVRWDTKPVCIGQKQKWFLLQLVSGDAEINMQTSSTPEFDGWRWVAYWYPVRQVVSFKRDVYRRVMKEFASVVMSLQENTPKPQNASAYRRKRG
In the case of B4, in [3], binding was characterised by a dissociation constant (Kd) of 12.8 ± 6 nM, the dH was -12.5 ± 0.3 kcal⋅mol^-1 and the “stoichiometry N” value came to 0.85.

B5: 8 nt RNA pppAGAACAAC (ssRNA)
RNA: AGAACAAC
modifications: 5'-triphosphate
B5: in the data set with RppH;DapF, the Kd is ~120 µM. The figures for the binding result with DapF and in the data set with RppH were “no binding” and “binds”, respectively.
